# T1: Sec31EE (residues 370–746, M540E and L544E) (yeast, UniProt P38968 370-746, M540E | L544E)
# T1 sequence (looked up): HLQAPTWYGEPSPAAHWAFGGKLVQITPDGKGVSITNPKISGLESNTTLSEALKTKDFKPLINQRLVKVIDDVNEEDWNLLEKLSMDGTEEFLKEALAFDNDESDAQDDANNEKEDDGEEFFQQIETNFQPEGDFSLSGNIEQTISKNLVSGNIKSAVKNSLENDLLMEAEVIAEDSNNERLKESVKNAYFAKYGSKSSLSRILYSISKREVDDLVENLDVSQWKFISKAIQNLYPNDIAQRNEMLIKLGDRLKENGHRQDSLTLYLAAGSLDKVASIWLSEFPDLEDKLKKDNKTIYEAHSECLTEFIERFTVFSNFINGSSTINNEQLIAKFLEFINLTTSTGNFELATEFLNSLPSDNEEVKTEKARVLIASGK
# B1: Sec16 central conserved domain (residues 984–1421) (domain or fragment, S. cerevisiae, UniProt P48415 984-1421, looked up)
# chain: DNEALLRRQFPIFHWSAANKVVYAVPPIPDQSQYMISSSIVQEIKVTPIDQIIKPNDMLKSFPGPLGSAKLKKKDLTKWMETTIKSISENESSTDMTIWQLLEMKLNDKVNWKNISKLLYNSDELLMYLSQPFPNGDMIPNAYRLDINCQMRVLAFLQTGNHDEALRLALSKRDYAIALLVGSLMGKDRWSEVIQKYLYEGFTAGPNDQKELAHFLLLIFQVFVGNSKMAIKSFYTNNETSQWASENWKSIVAAVLINIPENNEDPLLIPPVVLEFLIEFGIFLTKKGLTAAASTLFIIGNVPLSNEPVMADSDVIFESIGNMNTFESILWDEIYEYIFSYDPKFKGFSSILPQKIYHASLLQEQGLNSLGTKYTDYLSSSVRKLPKKDILTINLTRELSEVASRLSESNTGWLAKPKLSSVWGQLDKSFNKYIGGDD
# Tests used:
# [1] = target: T1, Sec31EE (residues 370–746, M540E and …); assay: SEC
# [2] = target: B1; assay: AUC
# crystal structure = target: the molecule itself; assay: crystal structure
# AUC = target: the molecule itself; assay: AUC
# SEC = target: the molecule itself; assay: SEC
binder,measurement,setting,value
"Sec13 (natural protein, S. cerevisiae, UniProt Q04491 1-297, looked up) MVVIANAHNELIHDAVLDYYGKRLATCSSDKTIKIFEVEGETHKLIDTLTGHEGPVWRVDWAHPKFGTILASCSYDGKVLIWKEENGRWSQIAVHAVHSASVNSVQWAPHEYGPLLLVASSDGKVSVVEFKENGTTSPIIIDAHAIGVNSASWAPATIEEDGEHNGTKESRKFVTGGADNLVKIWKYNSDAQTYVLESTLEGHSDWVRDVAWSPTVLLRSYLASVSQDRTCIIWTQDNEQGPWKKTLLKEEKFPDVLWRASWSLSGNVLALSGGDNKVTLWKENLEGKWEPAGEVHQ",stoichiometry N,[1],1 Sec13 per Sec31EE (printed 1:1)
same,stoichiometry N,[2],1 Sec13 per Sec16 (printed 2:2)
"Sec31ΔL (residues 370–746, deletion of residues 474–507) (domain or fragment, yeast, UniProt P38968 370-746, looked up) HLQAPTWYGEPSPAAHWAFGGKLVQITPDGKGVSITNPKISGLESNTTLSEALKTKDFKPLINQRLVKVIDDVNEEDWNLLEKLSMDGTEEFLKEALAFDNDESGNIEQTISKNLVSGNIKSAVKNSLENDLLMEAMVIALDSNNERLKESVKNAYFAKYGSKSSLSRILYSISKREVDDLVENLDVSQWKFISKAIQNLYPNDIAQRNEMLIKLGDRLKENGHRQDSLTLYLAAGSLDKVASIWLSEFPDLEDKLKKDNKTIYEAHSECLTEFIERFTVFSNFINGSSTINNEQLIAKFLEFINLTTSTGNFELATEFLNSLPSDNEEVKTEKARVLIASGK",binding result,crystal structure,binds
B1,stoichiometry N,AUC,2 copies of Sec16 in the tetramer
"Sec31 (residues 370–746) (domain or fragment, yeast, UniProt P38968 370-746, looked up) HLQAPTWYGEPSPAAHWAFGGKLVQITPDGKGVSITNPKISGLESNTTLSEALKTKDFKPLINQRLVKVIDDVNEEDWNLLEKLSMDGTEEFLKEALAFDNDESDAQDDANNEKEDDGEEFFQQIETNFQPEGDFSLSGNIEQTISKNLVSGNIKSAVKNSLENDLLMEAMVIALDSNNERLKESVKNAYFAKYGSKSSLSRILYSISKREVDDLVENLDVSQWKFISKAIQNLYPNDIAQRNEMLIKLGDRLKENGHRQDSLTLYLAAGSLDKVASIWLSEFPDLEDKLKKDNKTIYEAHSECLTEFIERFTVFSNFINGSSTINNEQLIAKFLEFINLTTSTGNFELATEFLNSLPSDNEEVKTEKARVLIASGK",binding result,SEC,binds
